Data on one molecule can be found in article doi:10.1101/2021.11.29.470412.

This test concerns the target Vrl1-Envy (S. cerevisiae). The experiment in a line: co-IP.

B1: Vin1-3HA (natural protein)
chain: MENDKASHASPSIGVNEFVVQGEISIDDSERSVKSVSVSISDDEDSKTDVQDNMATPSTRSKFQTDLAIDNRLLEKDPKYKKLFTEKRRRRRPESCINLMTKGKGTGQKDNINDQIFSLRILPGSDLNSLKDSLWIIKISTQPDVEKTIARAFSDFYWLYHQLQNNHWGKTIPPPTRSNILVEKDEFAINHLFMIRNNEKYDPIFNFKPEYIISLQLMAMIKHIFNDKVLRLDSNFIDFISWDDDLPESLQIVVDDSTFTGDKILMTSSQFRELKEFHKQSKKVESITNSHASLIPVTELTEIYISPTKLFSRKDYQRLFQPQSTDNTFNNNDPLIQEWIPKSKTLFTSLSFGSSAPTYQEASTEIQACHDWVSISKEQWKQLLYHVLQYIVDEAVKVNSVINEFTECLKQISLDEVIRANSELFLKFSKLNESFLKKFKGASRQDILKLIILFDENVRFCESFESILNQRLKLGKILSIIEVDLDKKKNFLDKLSPGNNNSNNEDLKIRTAEDEYRIVLKRYNRVKQSWEKIMEDILNERKEFEKREAAEVNSCLKSIRDLNMDEKKHYLQLWQDFVPDEHISQ
Turning to B1, the recovery of Vin1 in the co-IP stood at 64%.
